Experimental findings from patent US20100311648A1 are described below.

Experiment [1] addresses human melanocortin-4 receptor (human) (UniProt P32245). In words: [I125]-NDP-α-MSH competition, hMC4-R HEK-293 membranes.
Experiment [2] shares this target. In words: cell-based or functional assay.
Experiment [3] addresses melanocortin-1 receptor (mouse (B-16 melanoma cells); in some instances human (hMC1-R)) (UniProt Q01727). The experiment is described as follows: [I125]-NDP-α-MSH competition, MC1-R membranes.

Sequence of melanocortin-1 receptor (mouse (B-16 melanoma cells); in some instances human (hMC1-R)) (Q01727 whole entry): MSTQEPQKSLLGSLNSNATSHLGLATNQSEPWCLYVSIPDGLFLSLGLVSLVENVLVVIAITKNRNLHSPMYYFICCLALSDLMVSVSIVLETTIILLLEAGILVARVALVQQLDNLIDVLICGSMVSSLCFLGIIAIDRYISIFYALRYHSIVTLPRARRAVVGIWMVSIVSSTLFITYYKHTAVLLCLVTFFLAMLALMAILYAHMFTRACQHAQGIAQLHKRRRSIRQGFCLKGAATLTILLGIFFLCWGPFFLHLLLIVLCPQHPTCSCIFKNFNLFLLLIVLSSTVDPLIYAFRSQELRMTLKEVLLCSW
Sequence of human melanocortin-4 receptor (human) (P32245 whole entry): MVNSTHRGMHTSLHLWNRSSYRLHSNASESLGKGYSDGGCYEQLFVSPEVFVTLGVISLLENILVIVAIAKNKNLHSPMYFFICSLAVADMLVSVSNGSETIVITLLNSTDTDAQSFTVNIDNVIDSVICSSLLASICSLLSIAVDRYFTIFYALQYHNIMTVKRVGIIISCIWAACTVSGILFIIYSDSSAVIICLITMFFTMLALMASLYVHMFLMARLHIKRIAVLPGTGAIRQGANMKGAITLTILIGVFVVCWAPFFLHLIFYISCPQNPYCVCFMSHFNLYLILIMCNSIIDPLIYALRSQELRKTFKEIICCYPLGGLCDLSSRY

“Ac-Arg-cyclo(Glu-Dab-D-Phe(3,4-diCl)-Arg-Trp-Orn)-NH2 (peptide)” gave an inhibition constant (Ki) in experiment [1] of 0.055 nM. In experiment [2], this substance showed an EC50, cAMP, 10 ng/mL Doxycycline of 0.38 nM; an Intrinsic Activity, cAMP, 0.1 ng/mL Doxycycline of 5%; an Intrinsic Activity, cAMP, 10 ng/mL Doxycycline of 92%. The same substance gave an inhibition constant Ki in experiment [3] of 0.2 nM.

Substance “Ac-Arg-cyclo(Glu-Dab-D-Phe(3-CF3)-Arg-Trp-Orn)-NH2 (peptide)” displayed a Ki in experiment [1] of 0.95 nM. Moreover, in experiment [2], the EC50, cAMP, 0.1 ng/mL Doxycycline turned out to be 8 nM; the EC50, cAMP, 10 ng/mL Doxycycline was found to be 0.4 nM; the Intrinsic Activity, cAMP, 0.1 ng/mL Doxycycline stood at 16%; the Intrinsic Activity, cAMP, 10 ng/mL Doxycycline was determined as 93%. For the same substance, in experiment [3], the Ki amounted to 9 nM.

As for “Ac-Arg-cyclo(Glu-Dab-D-Phe(3-CN)-Arg-Trp-Orn)-NH2 (peptide)”, the Ki in experiment [1] was 33 nM. In experiment [2], this substance gave an EC50, cAMP, 0.1 ng/mL Doxycycline of 37 nM; an EC50, cAMP, 10 ng/mL Doxycycline of 2 nM; an Intrinsic Activity, cAMP, 0.1 ng/mL Doxycycline of 29%; an Intrinsic Activity, cAMP, 10 ng/mL Doxycycline of 100%. In experiment [3], this substance gave a Ki of 43 nM.

In turn, “Ac-Arg-cyclo(Glu-Dab-D-Phe(3-F)-Arg-Trp-Orn)-NH2 (peptide)” registered a Ki in experiment [1] of 2 nM. Also, in experiment [2], the EC50, cAMP, 0.1 ng/mL Doxycycline came out at 0.45 nM; the EC50, cAMP, 10 ng/mL Doxycycline stood at 0.17 nM; the Intrinsic Activity, cAMP, 0.1 ng/mL Doxycycline stood at 77%; the Intrinsic Activity, cAMP, 10 ng/mL Doxycycline was found to be 94%. In experiment [3], this substance registered an inhibition constant (Ki) of 2 nM.

Turning to “Ac-Arg-cyclo(Glu-Dab-D-Phe(4-CN)-Arg-Trp-Orn)-NH2 (peptide)”, in experiment [1], the Ki turned out to be 0.833 nM. In experiment [2], this substance had an EC50, cAMP, 0.1 ng/mL Doxycycline of 0.3 nM; an EC50, cAMP, 10 ng/mL Doxycycline of 0.135 nM; an Intrinsic Activity, cAMP, 0.1 ng/mL Doxycycline of 48%; an Intrinsic Activity, cAMP, 10 ng/mL Doxycycline of 100%. The substance further came in with a Ki in experiment [3] of 5 nM.

In the case of “Ac-Arg-cyclo(Glu-Dab-D-Phe(4-Cl)-Arg-Trp-Orn)-NH2 (peptide)”, the inhibition constant Ki in experiment [1] stood at 0.08 nM. In experiment [2], the EC50, cAMP, 0.1 ng/mL Doxycycline was 0.07 nM; the EC50, cAMP, 10 ng/mL Doxycycline was 0.16 nM; the Intrinsic Activity, cAMP, 0.1 ng/mL Doxycycline came out at 28%; the Intrinsic Activity, cAMP, 10 ng/mL Doxycycline was 100%. Also, the inhibitory constant (Ki) in experiment [3] is 0.3 nM.

On to “Ac-Arg-cyclo(Glu-Dab-D-Phe(4-F)-Arg-Trp-Orn)-NH2 (peptide)”, for which the inhibitory constant (Ki) in experiment [1] stood at 0.25 nM. In addition, in experiment [2], the EC50, cAMP, 0.1 ng/mL Doxycycline amounted to 0.065 nM; the EC50, cAMP, 10 ng/mL Doxycycline amounted to 0.06 nM; the Intrinsic Activity, cAMP, 0.1 ng/mL Doxycycline was found to be 83%; the Intrinsic Activity, cAMP, 10 ng/mL Doxycycline came out at 90%. Also, the inhibitory constant (Ki) in experiment [3] is 0.5 nM.

With “Ac-Arg-cyclo(Glu-Dab-D-Phe(4-OMe)-Arg-Trp-Orn)-NH2 (peptide)”, the inhibitory constant (Ki) in experiment [1] amounted to 0.25 nM. For the same substance, in experiment [2], the EC50, cAMP, 0.1 ng/mL Doxycycline was found to be 0.15 nM; the EC50, cAMP, 10 ng/mL Doxycycline was found to be 0.16 nM; the Intrinsic Activity, cAMP, 0.1 ng/mL Doxycycline was 28%; the Intrinsic Activity, cAMP, 10 ng/mL Doxycycline is 97%. The substance further gave a Ki in experiment [3] of 0.15 nM.

In experiment [1], “Ac-Arg-cyclo(Glu-Hyp-D-Phe(2-Cl)-Arg-Trp-Orn)-NH2 (peptide)” registered a Ki of 1 nM. Besides, in experiment [2], the EC50, cAMP, 0.1 ng/mL Doxycycline turned out to be 1 nM; the EC50, cAMP, 10 ng/mL Doxycycline is 0.153 nM; the Intrinsic Activity, cAMP, 0.1 ng/mL Doxycycline amounted to 41%; the Intrinsic Activity, cAMP, 10 ng/mL Doxycycline came to 98%. In experiment [3], this substance returned an inhibition constant (Ki) of 143 nM.

On to “Ac-Arg-cyclo(Glu-Hyp-D-Phe(3-Cl)-Arg-Trp-Orn)-NH2 (peptide)”, for which the inhibition constant Ki in experiment [1] stood at 2 nM. In experiment [2], this substance displayed an EC50, cAMP, 10 ng/mL Doxycycline of 0.55 nM; an Intrinsic Activity, cAMP, 0.1 ng/mL Doxycycline of 6%; an Intrinsic Activity, cAMP, 10 ng/mL Doxycycline of 90%. In addition, the Ki in experiment [3] was 430 nM.

In experiment [1], “Ac-Arg-cyclo(Glu-Hyp-D-Phe(4-CN)-Arg-Trp-Orn)-NH2 (peptide)” gave an inhibition constant Ki of 2 nM. For the same substance, in experiment [2], the EC50, cAMP, 10 ng/mL Doxycycline was 0.5 nM; the Intrinsic Activity, cAMP, 0.1 ng/mL Doxycycline stood at 8%; the Intrinsic Activity, cAMP, 10 ng/mL Doxycycline was 93%. In experiment [3], this substance yielded an inhibitory constant (Ki) of 880 nM.

On to “Ac-Arg-cyclo(Glu-Hyp-D-Phe(4-F)-Arg-Trp-Orn)-NH2 (peptide)”, for which, in experiment [1], the Ki came to 1 nM. In experiment [2], this substance gave an EC50, cAMP, 0.1 ng/mL Doxycycline of 0.45 nM; an EC50, cAMP, 10 ng/mL Doxycycline of 0.14 nM; an Intrinsic Activity, cAMP, 0.1 ng/mL Doxycycline of 62%; an Intrinsic Activity, cAMP, 10 ng/mL Doxycycline of 95%. The substance also registered a Ki in experiment [3] of 89 nM.

With “Ac-Arg-cyclo(Glu-Met(O2)-D-Phe(4-F)-Arg-Trp-Orn)-NH2 (peptide)”, in experiment [1], the Ki was found to be 2 nM. In experiment [2], this substance had an EC50, cAMP, 0.1 ng/mL Doxycycline of 0.85 nM; an EC50, cAMP, 10 ng/mL Doxycycline of 0.075 nM; an Intrinsic Activity, cAMP, 0.1 ng/mL Doxycycline of 55%; an Intrinsic Activity, cAMP, 10 ng/mL Doxycycline of 91%. This substance yielded a Ki in experiment [3] of 33 nM.

The substance “Ac-Arg-cyclo(Glu-Orn-D-Phe(2-Cl)-Arg-Trp-Orn)-OH (peptide)” showed a Ki in experiment [1] of 8 nM. In experiment [2], this substance had an EC50, cAMP, 0.1 ng/mL Doxycycline of 2 nM; an EC50, cAMP, 10 ng/mL Doxycycline of 0.235 nM; an Intrinsic Activity, cAMP, 0.1 ng/mL Doxycycline of 74%; an Intrinsic Activity, cAMP, 10 ng/mL Doxycycline of 93%. The substance also registered an inhibitory constant (Ki) in experiment [3] of 8 nM.

“Ac-Arg-cyclo(Glu-Orn-D-Phe(3-Cl)-Arg-Trp-Orn)-OH (peptide)”: in experiment [1], the Ki was 20 nM. Moreover, in experiment [2], the EC50, cAMP, 0.1 ng/mL Doxycycline turned out to be 10 nM; the EC50, cAMP, 10 ng/mL Doxycycline worked out at 0.8 nM; the Intrinsic Activity, cAMP, 0.1 ng/mL Doxycycline worked out at 28%; the Intrinsic Activity, cAMP, 10 ng/mL Doxycycline was found to be 98%. The substance further had a Ki in experiment [3] of 23 nM.

Consider “Ac-Arg-cyclo(Glu-Thr(Bzl)-D-Phe(2-Cl)-Arg-Trp-Orn)-NH2 (peptide)”, for which, in experiment [1], the Ki came to 0.35 nM. In experiment [2], this substance returned an EC50, cAMP, 0.1 ng/mL Doxycycline of 0.37 nM; an EC50, cAMP, 10 ng/mL Doxycycline of 0.157 nM; an Intrinsic Activity, cAMP, 0.1 ng/mL Doxycycline of 30%; an Intrinsic Activity, cAMP, 10 ng/mL Doxycycline of 93%. The substance also yielded an inhibitory constant (Ki) in experiment [3] of 12 nM.

In experiment [1], “Ac-D-Arg-cyclo(Orn-His-D-Phe(2-Cl)-Arg-Trp-Glu)-NH2 (peptide)” registered an inhibition constant Ki of 1 nM. In experiment [2], this substance returned an EC50, cAMP, 0.1 ng/mL Doxycycline of 0.21 nM; an EC50, cAMP, 10 ng/mL Doxycycline of 0.085 nM; an Intrinsic Activity, cAMP, 0.1 ng/mL Doxycycline of 94%; an Intrinsic Activity, cAMP, 10 ng/mL Doxycycline of 94%. In addition, the Ki in experiment [3] was 2 nM.

For the substance “Ac-D-Arg-cyclo(Orn-His-D-Phe(3,4-diF)-Arg-Trp-Glu)-NH2 (peptide)”, the Ki in experiment [1] is 0.25 nM. In experiment [2], the EC50, cAMP, 0.1 ng/mL Doxycycline is 0.075 nM; the EC50, cAMP, 10 ng/mL Doxycycline stood at 0.075 nM; the Intrinsic Activity, cAMP, 0.1 ng/mL Doxycycline stood at 56%; the Intrinsic Activity, cAMP, 10 ng/mL Doxycycline was 92%. The Ki in experiment [3] was 0.7 nM.

The substance “Ac-D-Arg-cyclo(Orn-His-D-Phe(3-Cl)-Arg-Trp-Glu)-NH2 (peptide)” yielded an inhibitory constant (Ki) in experiment [1] of 0.6 nM. In experiment [2], this substance displayed an EC50, cAMP, 0.1 ng/mL Doxycycline of 0.64 nM; an EC50, cAMP, 10 ng/mL Doxycycline of 0.4 nM; an Intrinsic Activity, cAMP, 0.1 ng/mL Doxycycline of 22%; an Intrinsic Activity, cAMP, 10 ng/mL Doxycycline of 95%. The substance also yielded a Ki in experiment [3] of 3 nM.

Regarding “Ac-D-Arg-cyclo(Orn-His-D-Phe(4-CN)-Arg-Trp-Glu)-NH2 (peptide)”, the Ki in experiment [1] came to 0.6 nM. For the same substance, in experiment [2], the EC50, cAMP, 0.1 ng/mL Doxycycline is 0.325 nM; the EC50, cAMP, 10 ng/mL Doxycycline is 0.2 nM; the Intrinsic Activity, cAMP, 0.1 ng/mL Doxycycline worked out at 31%; the Intrinsic Activity, cAMP, 10 ng/mL Doxycycline amounted to 99%. The substance also registered an inhibitory constant (Ki) in experiment [3] of 6 nM.

With “Ac-D-Arg-cyclo(Orn-His-D-Phe(4-F)-Arg-Trp-Glu)-NH2 (peptide)”, the Ki in experiment [1] was found to be 0.65 nM. In experiment [2], the EC50, cAMP, 0.1 ng/mL Doxycycline turned out to be 0.25 nM; the EC50, cAMP, 10 ng/mL Doxycycline was determined as 0.095 nM; the Intrinsic Activity, cAMP, 0.1 ng/mL Doxycycline was 89%; the Intrinsic Activity, cAMP, 10 ng/mL Doxycycline was 100%. This substance gave an inhibitory constant (Ki) in experiment [3] of 1 nM.
